Laboratory results taken from the supplement of paper PMC10126150.
± gives the standard deviation of the averaged measurements.

Test system: ATP
Experiment: switch fluorescence ratio, 500 uM ATP over buffer (Cy3 cluster intensity, sum of 5 cycles each) (fold (ratio)); higher = stronger signal-on switching upon ATP binding; sequences stand for … in TCGTCGGCAGCGTCAGATGTGTATAAGAGACAGTTTTTTTTTTTTTTTTTTTTTTTTT…TC
Conditions: aptamer strand: ATP DNA aptamer (quencher-CACCTGGGGGAGTATTGCGGAGGAAGG + anchor), 100 nM annealed; ATP concentration: 500 uM
Procedure, shortened: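 After annealing to 100 nM quencher-labelled ATP aptamer, Cy3-labelled switching-strand clusters on a modified Illumina MiSeq flow-cell were imaged in selection buffer. A second image followed after 15 min with 500 uM ATP at 22 °C, and five such buffer/ATP cycles were done, each separated by NaOH stripping and re-annealing. The fluorescence ratio, averaged per switch-domain sequence, is summed target-cycle over summed buffer-cycle Cy3 intensity per cluster, with clusters outside 100-1000 RFU excluded.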
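Also: ATP exposure 15 min at 22 °C before imaging.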

TAGAGTAGTG
switch fluorescence ratio: 0.999 ± 0.05

TAGAGTTAAG
switch fluorescence ratio: 0.9747 ± 0.0046

TAGATAAATT
switch fluorescence ratio: 0.9965 ± 0.008

TAGATATGCG
switch fluorescence ratio: 1.03 ± 0.015

TAGATATTTA
switch fluorescence ratio: 1.01 ± 0.0087

TAGATGCACA
switch fluorescence ratio: 0.9516 ± 0.0037

TAGATGGGGG
switch fluorescence ratio: 1 ± 0.011

TAGATGTAAC
switch fluorescence ratio: 0.975 ± 0.029

TAGATGTTCG
switch fluorescence ratio: 0.978 ± 0.044

TAGATTGATG
switch fluorescence ratio: 1.0281 ± 0.00078

TAGATTTGTT
switch fluorescence ratio: 1.01 ± 0.03

TAGATTTTTA
switch fluorescence ratio: 0.987 ± 0.028

TAGATTTTTT
switch fluorescence ratio: 1.02 ± 0.019

TAGCAAAGAA
switch fluorescence ratio: 1.03 ± 0.03

TAGCACAGTG
switch fluorescence ratio: 1.15 ± 0.15

TAGCAGGCTA
switch fluorescence ratio: 1 ± 0.013

TAGCAGGGTC
switch fluorescence ratio: 1.089 ± 0.0072

TAGCATAACC
switch fluorescence ratio: 1.181 ± 0.0097

TAGCATGCGG
switch fluorescence ratio: 1.01 ± 0.019

TAGCATGTTC
switch fluorescence ratio: 1.09 ± 0.049

TAGCATTCTA
switch fluorescence ratio: 1.013 ± 0.0054

TAGCATTTTT
switch fluorescence ratio: 1.07 ± 0.14

TAGCCAAGTC
switch fluorescence ratio: 1.02 ± 0.01

TAGCCAGGGG
switch fluorescence ratio: 1.2 ± 0.076

TAGCCATTGG
switch fluorescence ratio: 1.05 ± 0.081

TAGCCCCCAG
switch fluorescence ratio: 1.6 ± 0.78

TAGCCCGTGG
switch fluorescence ratio: 1.02 ± 0.027

TAGCCGGGGA
switch fluorescence ratio: 1.01 ± 0.032

TAGCCGTCTA
switch fluorescence ratio: 1.058 ± 0.0034

TAGCGAATAG
switch fluorescence ratio: 1.19 ± 0.043

TAGCGCATGG
switch fluorescence ratio: 1.08 ± 0.046

TAGCGGGGGA
switch fluorescence ratio: 1.04 ± 0.019

TAGCGGGGTT
switch fluorescence ratio: 0.9757 ± 0.0054

TAGCGTATGA
switch fluorescence ratio: 1.03 ± 0.014

TAGCTAATTT
switch fluorescence ratio: 0.979 ± 0.027

TAGCTACTTC
switch fluorescence ratio: 1.73 ± 0.93

TAGCTATGTG
switch fluorescence ratio: 0.982 ± 0.038

TAGCTCCGGG
switch fluorescence ratio: 1.055 ± 0.0063

TAGCTCGGGA
switch fluorescence ratio: 0.9742 ± 0.0097

TAGCTCGGTG
switch fluorescence ratio: 1 ± 0.042

TAGCTGAGTT
switch fluorescence ratio: 0.984 ± 0.014

TAGCTGGAGG
switch fluorescence ratio: 0.998 ± 0.035

TAGCTGGATG
switch fluorescence ratio: 0.98618 ± 0.00039

TAGCTGGCAC
switch fluorescence ratio: 1.02 ± 0.0034

TAGCTGTTAT
switch fluorescence ratio: 0.997 ± 0.03

TAGCTGTTTT
switch fluorescence ratio: 1.02 ± 0.02

TAGCTTGTTG
switch fluorescence ratio: 1.02 ± 0.025

TAGCTTTTTA
switch fluorescence ratio: 1 ± 0.026

TAGGAAATTT
switch fluorescence ratio: 1.03 ± 0.087

TAGGAAGGCA
switch fluorescence ratio: 0.967 ± 0.0024

TAGGACACGT
switch fluorescence ratio: 1.03 ± 0.012

TAGGACAGCG
switch fluorescence ratio: 0.969 ± 0.078

TAGGAGCTTG
switch fluorescence ratio: 1 ± 0.042

TAGGAGGGT
switch fluorescence ratio: 1.033 ± 0.0037

TAGGAGGGTT
switch fluorescence ratio: 0.987 ± 0.026

TAGGAGTTGT
switch fluorescence ratio: 0.995 ± 0.016

TAGGATGCAC
switch fluorescence ratio: 1.014 ± 0.0033

TAGGATTAAT
switch fluorescence ratio: 0.999 ± 0.012

TAGGCCAGTT
switch fluorescence ratio: 0.996 ± 0.011

TAGGCCGCTG
switch fluorescence ratio: 1.07 ± 0.15

TAGGCGCTAG
switch fluorescence ratio: 0.999 ± 0.011

TAGGCGTGTC
switch fluorescence ratio: 0.992 ± 0.016

TAGGCTTGAA
switch fluorescence ratio: 1.03 ± 0.028

TAGGGAAGGG
switch fluorescence ratio: 0.976 ± 0.032

TAGGGAATCA
switch fluorescence ratio: 0.97 ± 0.014

TAGGGACTAG
switch fluorescence ratio: 1.02 ± 0.015

TAGGGACTAT
switch fluorescence ratio: 1.02 ± 0.018

TAGGGAGAGT
switch fluorescence ratio: 1.01 ± 0.022

TAGGGAGCCT
switch fluorescence ratio: 0.964 ± 0.016

TAGGGAGGCT
switch fluorescence ratio: 0.992 ± 0.038

TAGGGATGGG
switch fluorescence ratio: 1.02 ± 0.019

TAGGGCAGGG
switch fluorescence ratio: 1 ± 0.0022

TAGGGCGAGG
switch fluorescence ratio: 0.9899 ± 0.001

TAGGGCGCAG
switch fluorescence ratio: 0.959 ± 0.028

TAGGGCGGAG
switch fluorescence ratio: 0.957 ± 0.025

TAGGGCGGGT
switch fluorescence ratio: 0.972 ± 0.039

TAGGGCTGTG
switch fluorescence ratio: 0.995 ± 0.059

TAGGGGAAAG
switch fluorescence ratio: 0.99 ± 0.052

TAGGGGAGCT
switch fluorescence ratio: 0.974 ± 0.067

TAGGGGATTG
switch fluorescence ratio: 1 ± 0.02

TAGGGGCAGC
switch fluorescence ratio: 1.01 ± 0.0054

TAGGGGCGAG
switch fluorescence ratio: 0.989 ± 0.048

TAGGGGCGAT
switch fluorescence ratio: 1.01 ± 0.032

TAGGGGCTCG
switch fluorescence ratio: 0.999 ± 0.032

TAGGGGCTG
switch fluorescence ratio: 1.01 ± 0.015

TAGGGGGAGC
switch fluorescence ratio: 1.01 ± 0.062

TAGGGGGGCT
switch fluorescence ratio: 0.968 ± 0.045

TAGGGGGTAG
switch fluorescence ratio: 1.01 ± 0.036

TAGGGGGTGG
switch fluorescence ratio: 1 ± 0.03

TAGGGGGTGT
switch fluorescence ratio: 0.991 ± 0.018

TAGGGGTACA
switch fluorescence ratio: 1.03 ± 0.016

TAGGGGTTGC
switch fluorescence ratio: 1.1 ± 0.11

TAGGGTAGGT
switch fluorescence ratio: 0.974 ± 0.0049

TAGGGTATGA
switch fluorescence ratio: 1.01 ± 0.02

TAGGGTGCTG
switch fluorescence ratio: 1.09 ± 0.16

TAGGGTTAAG
switch fluorescence ratio: 0.9994 ± 0.004

TAGGGTTGCA
switch fluorescence ratio: 1 ± 0.057

TAGGGTTTTC
switch fluorescence ratio: 0.988 ± 0.045

TAGGTAAAGT
switch fluorescence ratio: 0.981 ± 0.03

TAGGTAGGCA
switch fluorescence ratio: 1 ± 0.028

TAGGTAGGCT
switch fluorescence ratio: 0.974 ± 0.025

TAGGTAGGGG
switch fluorescence ratio: 0.99 ± 0.036

TAGGTAGTTT
switch fluorescence ratio: 0.969 ± 0.032

TAGGTCAGGG
switch fluorescence ratio: 0.965 ± 0.027

TAGGTCGATA
switch fluorescence ratio: 1 ± 0.023

TAGGTCGTTT
switch fluorescence ratio: 0.982 ± 0.01

TAGGTCTCAG
switch fluorescence ratio: 1.029 ± 0.0085

TAGGTCTGCG
switch fluorescence ratio: 0.978 ± 0.014

TAGGTGAAGG
switch fluorescence ratio: 1 ± 0.0069

TAGGTGACAA
switch fluorescence ratio: 1 ± 0.015

TAGGTGATTT
switch fluorescence ratio: 1.03 ± 0.023

TAGGTGGCGT
switch fluorescence ratio: 1.006 ± 0.0028

TAGGTGGCTC
switch fluorescence ratio: 1.03 ± 0.069

TAGGTGTTAT
switch fluorescence ratio: 1.02 ± 0.037

TAGGTTGTGC
switch fluorescence ratio: 0.976 ± 0.037

TAGGTTGTTG
switch fluorescence ratio: 0.969 ± 0.011

TAGGTTTAGT
switch fluorescence ratio: 0.9841 ± 0.0094

TAGGTTTTTT
switch fluorescence ratio: 0.989 ± 0.035

TAGTAAAGAT
switch fluorescence ratio: 1 ± 0.017

TAGTAAAGGT
switch fluorescence ratio: 1.022 ± 0.0068

TAGTAACTAC
switch fluorescence ratio: 1.05 ± 0.011

TAGTAATCGT
switch fluorescence ratio: 1.01 ± 0.063

TAGTAATTGA
switch fluorescence ratio: 1 ± 0.02

TAGTACCGGT
switch fluorescence ratio: 0.991 ± 0.029

TAGTACGGGC
switch fluorescence ratio: 1 ± 0.044

TAGTACTCGT
switch fluorescence ratio: 1.01 ± 0.011

TAGTAGTCAA
switch fluorescence ratio: 1.03 ± 0.011

TAGTAGTTGC
switch fluorescence ratio: 1.032 ± 0.0059

TAGTAGTTTT
switch fluorescence ratio: 1.01 ± 0.052

TAGTATATTT
switch fluorescence ratio: 0.954 ± 0.018

TAGTCATTCA
switch fluorescence ratio: 0.981 ± 0.026

TAGTCCATCG
switch fluorescence ratio: 0.998 ± 0.012

TAGTCCTATG
switch fluorescence ratio: 0.969 ± 0.021

TAGTCGCGTC
switch fluorescence ratio: 1.004 ± 0.0066

TAGTCGGGGA
switch fluorescence ratio: 1.03 ± 0.059

TAGTCGGTGG
switch fluorescence ratio: 0.9978 ± 0.0032

TAGTCTGCGT
switch fluorescence ratio: 1.04 ± 0.037

TAGTCTGGGC
switch fluorescence ratio: 0.986 ± 0.037

TAGTGACTAG
switch fluorescence ratio: 1.05 ± 0.021

TAGTGAGTCC
switch fluorescence ratio: 1.08 ± 0.1

TAGTGCGGGA
switch fluorescence ratio: 1.02 ± 0.073

TAGTGGGGCC
switch fluorescence ratio: 1.01 ± 0.019

TAGTGGGGGG
switch fluorescence ratio: 0.989 ± 0.026

TAGTGGTTCG
switch fluorescence ratio: 1.02 ± 0.023

TAGTGTGGGG
switch fluorescence ratio: 1.04 ± 0.034

TAGTGTGTTT
switch fluorescence ratio: 0.9823 ± 0.0095

TAGTGTTGTG
switch fluorescence ratio: 0.971 ± 0.055

TAGTTAGGGT
switch fluorescence ratio: 0.9959 ± 0.0093

TAGTTAGTGA
switch fluorescence ratio: 0.986 ± 0.034

TAGTTATGGT
switch fluorescence ratio: 1.04 ± 0.019

TAGTTATTAG
switch fluorescence ratio: 1 ± 0.04

TAGTTATTGA
switch fluorescence ratio: 1.01 ± 0.038

TAGTTCTTAA
switch fluorescence ratio: 0.984 ± 0.064

TAGTTGGGCG
switch fluorescence ratio: 0.984 ± 0.098

TAGTTGTAGG
switch fluorescence ratio: 1.04 ± 0.051

TAGTTGTCCC
switch fluorescence ratio: 1.02 ± 0.045

TAGTTGTTTG
switch fluorescence ratio: 0.9989 ± 0.0085
